Targets include SNAP-hGLP1R (human) (UniProt P43220); SNAPf-mGLP1R (mouse) (UniProt O35659); hGLP1R-GFP (human) (UniProt P43220).

We go through 1 substance from PMC9849236.

Chain of UniProt O35659 (O35659 22-463): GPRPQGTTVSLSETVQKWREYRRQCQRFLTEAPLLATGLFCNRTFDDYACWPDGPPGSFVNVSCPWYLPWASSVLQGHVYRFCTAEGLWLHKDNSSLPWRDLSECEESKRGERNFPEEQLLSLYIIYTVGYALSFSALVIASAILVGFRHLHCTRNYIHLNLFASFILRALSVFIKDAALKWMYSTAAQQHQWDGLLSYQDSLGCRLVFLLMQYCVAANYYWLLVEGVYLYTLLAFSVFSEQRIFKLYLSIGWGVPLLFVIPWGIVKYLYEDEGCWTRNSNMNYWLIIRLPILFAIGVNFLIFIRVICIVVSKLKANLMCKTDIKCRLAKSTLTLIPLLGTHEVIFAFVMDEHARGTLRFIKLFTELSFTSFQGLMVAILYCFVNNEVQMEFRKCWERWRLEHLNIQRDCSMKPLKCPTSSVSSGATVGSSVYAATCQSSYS

For Exendin4(1-39) (peptide), the EC50 of Exendin4-induced cAMP generation (LANCE cAMP assay, transfected AD293 cells, 30 min with ligand + 100 µM IBMX) was found to be 8.02 pM in the assay with SNAP-hGLP1R (human), 4.22 pM in the assay with SNAPf-mGLP1R (mouse) and 5 pM in the assay with hGLP1R-GFP (human).
